Target: T1, HLA-A*0201 molecule expressed on human T2 cells (human)
T1 construct: also called HLA.A2.01
Assay: T2 cell HLA-A*0201 stabilisation assay, flow cytometry; ratio of the peptide concentrations inducing 20% of HLA-A*0201 expression
Procedure: T2 cells (2.10⁵ cells per well) were incubated with decreasing concentrations of peptides from 100 μM to 0.1 μM in a AIMV medium supplemented with 100 ng/μl of human β2m at 37° C. for 16 hours.
The analysis was performed by FACS (Guava Easy Cyte). […] The relative affinity is then determined as follows:

In vitro binding affinity (relative affinity against reference peptide HIV pol 589-597)	Binder
3.06	ALPFGFILV [peptide 1A9V]
2.62	FLPFGFILM [peptide 1F9M]
2.22	ILPFGFILA [peptide 1I9A]

— patent US20200025774A1 (ENTEROME S A, published 2020)
